Test results as given in PMC10786891, “Massively parallel profiling of RNA-targeting CRISPR-Cas13d”.

T1: EsCas13d, nuclease-dead (Eubacterium siraeum, UniProt B0MS50, R295A;H300A;R849A;H854A)
T1 sequence: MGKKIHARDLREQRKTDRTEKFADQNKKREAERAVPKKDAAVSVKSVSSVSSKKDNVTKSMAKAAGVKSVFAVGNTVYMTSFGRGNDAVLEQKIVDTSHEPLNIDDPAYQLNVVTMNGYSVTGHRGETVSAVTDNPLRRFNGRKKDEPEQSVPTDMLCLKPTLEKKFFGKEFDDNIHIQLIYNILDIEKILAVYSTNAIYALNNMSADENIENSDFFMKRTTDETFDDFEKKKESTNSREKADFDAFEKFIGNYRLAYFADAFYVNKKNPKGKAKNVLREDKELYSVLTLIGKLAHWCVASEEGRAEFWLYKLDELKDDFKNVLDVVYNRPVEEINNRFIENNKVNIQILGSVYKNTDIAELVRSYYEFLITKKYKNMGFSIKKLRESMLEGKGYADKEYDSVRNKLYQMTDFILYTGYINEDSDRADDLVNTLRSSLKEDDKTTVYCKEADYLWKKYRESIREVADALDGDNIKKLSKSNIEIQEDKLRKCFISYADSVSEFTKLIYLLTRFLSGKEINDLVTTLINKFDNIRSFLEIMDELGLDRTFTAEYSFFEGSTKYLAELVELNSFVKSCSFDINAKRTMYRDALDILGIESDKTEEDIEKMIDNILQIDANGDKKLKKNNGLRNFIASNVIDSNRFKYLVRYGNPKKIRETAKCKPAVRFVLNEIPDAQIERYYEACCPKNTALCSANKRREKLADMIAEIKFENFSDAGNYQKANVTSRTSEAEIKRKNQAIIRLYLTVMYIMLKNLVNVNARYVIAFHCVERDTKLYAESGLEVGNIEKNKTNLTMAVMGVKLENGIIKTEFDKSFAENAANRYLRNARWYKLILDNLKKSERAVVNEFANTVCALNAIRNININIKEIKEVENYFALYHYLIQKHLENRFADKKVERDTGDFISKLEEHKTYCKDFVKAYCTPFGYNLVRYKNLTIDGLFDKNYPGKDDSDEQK

B1: target 1 insG 3' of 2 (mixed)
RNA 1: CACCCGUGCAAAAAUGCAGGGGUCUAAAACUGAGCGGAUAACCUCUCUAUGG
RNA 2: GGGAAUGGAUCCACAUCUACGAAUUCGUACCAUAGAGAGGUUAUCCGCUCGACCGAGAUCGGAAGAGCACACGU
B2: target 1 insA 3' of 21 (mixed)
RNA 1: CACCCGUGCAAAAAUGCAGGGGUCUAAAACUGAGCGGAUAACCUCUCUAUGG
RNA 2: GGGAAUGGAUCCACAUCUACGAAUUCGUACCAAUAGAGAGGUUAUCCGCUCACCGAGAUCGGAAGAGCACACGU
B3: target 1 insA 3' of 10,insA 3' of 3 (mixed)
RNA 1: CACCCGUGCAAAAAUGCAGGGGUCUAAAACUGAGCGGAUAACCUCUCUAUGG
RNA 2: GGGAAUGGAUCCACAUCUACGAAUUCGUACCAUAGAGAGGUUAAUCCGCUACACCGAGAUCGGAAGAGCACACGU
B4: target 2 MT 5'PFS UUA 3'PFS CCA (mixed)
RNA 1: CACCCGUGCAAAAUUGCAGGGGUCUAAAACCUUCUCCAAAUUGUUUCAUCCU
RNA 2: GGGAAUGGAUCCACAUCUACGAAUUCUUAAGGAUGAAACAAUUUGGAGAAGCCAAGAUCGGAAGAGCACACGU
B5: target 2 MT 5'PFS CUU 3'PFS AAA (mixed)
RNA 1: CACCCGUGCAAAAUUGCAGGGGUCUAAAACCUUCUCCAAAUUGUUUCAUCCU
RNA 2: GGGAAUGGAUCCACAUCUACGAAUUCCUUAGGAUGAAACAAUUUGGAGAAGAAAAGAUCGGAAGAGCACACGU
B6: target 2 MT 5'PFS CUG 3'PFS AUG (mixed)
RNA 1: CACCCGUGCAAAAUUGCAGGGGUCUAAAACCUUCUCCAAAUUGUUUCAUCCU
RNA 2: GGGAAUGGAUCCACAUCUACGAAUUCCUGAGGAUGAAACAAUUUGGAGAAGAUGAGAUCGGAAGAGCACACGU
B7: target 2 MT 5'PFS CUU 3'PFS AAC (mixed)
RNA 1: CACCCGUGCAAAAUUGCAGGGGUCUAAAACCUUCUCCAAAUUGUUUCAUCCU
RNA 2: GGGAAUGGAUCCACAUCUACGAAUUCCUUAGGAUGAAACAAUUUGGAGAAGAACAGAUCGGAAGAGCACACGU
B8: target 2 MT 5'PFS GGA 3'PFS UCA (mixed)
RNA 1: CACCCGUGCAAAAUUGCAGGGGUCUAAAACCUUCUCCAAAUUGUUUCAUCCU
RNA 2: GGGAAUGGAUCCACAUCUACGAAUUCGGAAGGAUGAAACAAUUUGGAGAAGUCAAGAUCGGAAGAGCACACGU
B9: target 2 MT 5'PFS CUG 3'PFS CGC (mixed)
RNA 1: CACCCGUGCAAAAUUGCAGGGGUCUAAAACCUUCUCCAAAUUGUUUCAUCCU
RNA 2: GGGAAUGGAUCCACAUCUACGAAUUCCUGAGGAUGAAACAAUUUGGAGAAGCGCAGAUCGGAAGAGCACACGU
B10: target 2 MT 5'PFS CCC 3'PFS UUA (mixed)
RNA 1: CACCCGUGCAAAAUUGCAGGGGUCUAAAACCUUCUCCAAAUUGUUUCAUCCU
RNA 2: GGGAAUGGAUCCACAUCUACGAAUUCCCCAGGAUGAAACAAUUUGGAGAAGUUAAGAUCGGAAGAGCACACGU
B11: target 2 MT 5'PFS UUG 3'PFS CAG (mixed)
RNA 1: CACCCGUGCAAAAUUGCAGGGGUCUAAAACCUUCUCCAAAUUGUUUCAUCCU
RNA 2: GGGAAUGGAUCCACAUCUACGAAUUCUUGAGGAUGAAACAAUUUGGAGAAGCAGAGAUCGGAAGAGCACACGU
B12: target 2 MT 5'PFS ACA 3'PFS AAG (mixed)
RNA 1: CACCCGUGCAAAAUUGCAGGGGUCUAAAACCUUCUCCAAAUUGUUUCAUCCU
RNA 2: GGGAAUGGAUCCACAUCUACGAAUUCACAAGGAUGAAACAAUUUGGAGAAGAAGAGAUCGGAAGAGCACACGU
B13: target 2 MT 5'PFS CAC 3'PFS CUC (mixed)
RNA 1: CACCCGUGCAAAAUUGCAGGGGUCUAAAACCUUCUCCAAAUUGUUUCAUCCU
RNA 2: GGGAAUGGAUCCACAUCUACGAAUUCCACAGGAUGAAACAAUUUGGAGAAGCUCAGAUCGGAAGAGCACACGU
B14: target 2 MT 5'PFS CAG 3'PFS CCG (mixed)
RNA 1: CACCCGUGCAAAAUUGCAGGGGUCUAAAACCUUCUCCAAAUUGUUUCAUCCU
RNA 2: GGGAAUGGAUCCACAUCUACGAAUUCCAGAGGAUGAAACAAUUUGGAGAAGCCGAGAUCGGAAGAGCACACGU
B15: target 2 MT 5'PFS GGA 3'PFS UCU (mixed)
RNA 1: CACCCGUGCAAAAUUGCAGGGGUCUAAAACCUUCUCCAAAUUGUUUCAUCCU
RNA 2: GGGAAUGGAUCCACAUCUACGAAUUCGGAAGGAUGAAACAAUUUGGAGAAGUCUAGAUCGGAAGAGCACACGU
B16: target 2 MT 5'PFS GGA 3'PFS UCG (mixed)
RNA 1: CACCCGUGCAAAAUUGCAGGGGUCUAAAACCUUCUCCAAAUUGUUUCAUCCU
RNA 2: GGGAAUGGAUCCACAUCUACGAAUUCGGAAGGAUGAAACAAUUUGGAGAAGUCGAGAUCGGAAGAGCACACGU
B17: target 2 MT 5'PFS UUC 3'PFS AAC (mixed)
RNA 1: CACCCGUGCAAAAUUGCAGGGGUCUAAAACCUUCUCCAAAUUGUUUCAUCCU
RNA 2: GGGAAUGGAUCCACAUCUACGAAUUCUUCAGGAUGAAACAAUUUGGAGAAGAACAGAUCGGAAGAGCACACGU
B18: target 2 MT 5'PFS AGU 3'PFS AGU (mixed)
RNA 1: CACCCGUGCAAAAUUGCAGGGGUCUAAAACCUUCUCCAAAUUGUUUCAUCCU
RNA 2: GGGAAUGGAUCCACAUCUACGAAUUCAGUAGGAUGAAACAAUUUGGAGAAGAGUAGAUCGGAAGAGCACACGU
B19: target 2 MT 5'PFS AGU 3'PFS AGG (mixed)
RNA 1: CACCCGUGCAAAAUUGCAGGGGUCUAAAACCUUCUCCAAAUUGUUUCAUCCU
RNA 2: GGGAAUGGAUCCACAUCUACGAAUUCAGUAGGAUGAAACAAUUUGGAGAAGAGGAGAUCGGAAGAGCACACGU
B20: target 2 MT 5'PFS CUG 3'PFS AUA (mixed)
RNA 1: CACCCGUGCAAAAUUGCAGGGGUCUAAAACCUUCUCCAAAUUGUUUCAUCCU
RNA 2: GGGAAUGGAUCCACAUCUACGAAUUCCUGAGGAUGAAACAAUUUGGAGAAGAUAAGAUCGGAAGAGCACACGU
B21: target 2 MT 5'PFS UUG 3'PFS CAC (mixed)
RNA 1: CACCCGUGCAAAAUUGCAGGGGUCUAAAACCUUCUCCAAAUUGUUUCAUCCU
RNA 2: GGGAAUGGAUCCACAUCUACGAAUUCUUGAGGAUGAAACAAUUUGGAGAAGCACAGAUCGGAAGAGCACACGU
B22: target 2 MT 5'PFS ACA 3'PFS AAA (mixed)
RNA 1: CACCCGUGCAAAAUUGCAGGGGUCUAAAACCUUCUCCAAAUUGUUUCAUCCU
RNA 2: GGGAAUGGAUCCACAUCUACGAAUUCACAAGGAUGAAACAAUUUGGAGAAGAAAAGAUCGGAAGAGCACACGU
B23: target 2 MT 5'PFS CAC 3'PFS CUU (mixed)
RNA 1: CACCCGUGCAAAAUUGCAGGGGUCUAAAACCUUCUCCAAAUUGUUUCAUCCU
RNA 2: GGGAAUGGAUCCACAUCUACGAAUUCCACAGGAUGAAACAAUUUGGAGAAGCUUAGAUCGGAAGAGCACACGU
B24: target 2 MT 5'PFS GGA 3'PFS UCC (mixed)
RNA 1: CACCCGUGCAAAAUUGCAGGGGUCUAAAACCUUCUCCAAAUUGUUUCAUCCU
RNA 2: GGGAAUGGAUCCACAUCUACGAAUUCGGAAGGAUGAAACAAUUUGGAGAAGUCCAGAUCGGAAGAGCACACGU
B25: target 2 MT 5'PFS CUU 3'PFS AAG (mixed)
RNA 1: CACCCGUGCAAAAUUGCAGGGGUCUAAAACCUUCUCCAAAUUGUUUCAUCCU
RNA 2: GGGAAUGGAUCCACAUCUACGAAUUCCUUAGGAUGAAACAAUUUGGAGAAGAAGAGAUCGGAAGAGCACACGU
B26: target 2 MT 5'PFS UUG 3'PFS CAU (mixed)
RNA 1: CACCCGUGCAAAAUUGCAGGGGUCUAAAACCUUCUCCAAAUUGUUUCAUCCU
RNA 2: GGGAAUGGAUCCACAUCUACGAAUUCUUGAGGAUGAAACAAUUUGGAGAAGCAUAGAUCGGAAGAGCACACGU
B27: target 2 MT 5'PFS GAG 3'PFS AUG (mixed)
RNA 1: CACCCGUGCAAAAUUGCAGGGGUCUAAAACCUUCUCCAAAUUGUUUCAUCCU
RNA 2: GGGAAUGGAUCCACAUCUACGAAUUCGAGAGGAUGAAACAAUUUGGAGAAGAUGAGAUCGGAAGAGCACACGU
B28: target 2 MT 5'PFS UUG 3'PFS CAA (mixed)
RNA 1: CACCCGUGCAAAAUUGCAGGGGUCUAAAACCUUCUCCAAAUUGUUUCAUCCU
RNA 2: GGGAAUGGAUCCACAUCUACGAAUUCUUGAGGAUGAAACAAUUUGGAGAAGCAAAGAUCGGAAGAGCACACGU

target: T1, EsCas13d, nuclease-dead; test: crRNA (strand 1, pre-loaded); Mg2+; 40 mM Tris-HCl pH 7.5, 150 mM NaCl, 6 mM MgCl2, 1 mM DTT, 0.1% Tween-20, 0.2 mg/ml BSA; 25 C; 10 min per concentration, then washed; details: tags: His6-TwinStrep-SUMO cleaved; N-terminal SNAP kept (SNAP-Surface 488); label: 3' end held by stalled T7 RNA polymerase

First: B1
Second: B2
The Kd of the first is 1.6-fold lower: 8.6 ± 0.4 nM for the first, 13.8 ± 1.2 nM for the second. The first binds more tightly here.

First: B3
Second: B4
The Kd of the first is 3.4-fold lower: 8.56 ± 0.34 nM for the first, 29 ± 5 nM for the second. The first binds more tightly here.

B5 and B6 are within error of each other in Kd: 2.9 ± 0.35 nM for the first, 3.17 ± 0.32 nM for the second.

Going from B7 to B8, the Kd rises from 4.3 ± 0.5 nM to 10.4 ± 1.4 nM (2.4-fold).

Going from B9 to B10, the Kd falls from 4 ± 0.4 nM to 1.25 ± 0.21 nM (3.2-fold). The second binds more tightly here.

B11 and B12 are within error of each other in Kd: 11.8 ± 0.9 nM for the first, 10 ± 5 nM for the second.

Compared with B13, B14 is 4.1-fold higher in Kd: 2.9 ± 1 nM for the first, 11.9 ± 3 nM for the second.

B15 and B16 are within error of each other in Kd: 22 ± 4 nM for the first, 17.4 ± 2.7 nM for the second.

Compared with B17, B18 is 2.2-fold lower in Kd: 15 ± 4 nM for the first, 6.8 ± 0.7 nM for the second. The second binds more tightly here.

Going from B19 to B20, the Kd falls from 12.3 ± 1.9 nM to 2.63 ± 0.24 nM (4.7-fold). The second binds more tightly here.

Going from B21 to B22, the Kd falls from 16.4 ± 2.2 nM to 8.3 ± 1.4 nM (2-fold). The second binds more tightly here.

First: B23
Second: B24
The Kd of the first is 10-fold lower: 2.31 ± 0.3 nM for the first, 24.2 ± 2.8 nM for the second.

Compared with B25, B26 is 2.2-fold higher in Kd: 4.1 ± 0.4 nM for the first, 9.1 ± 1.2 nM for the second.

Compared with B27, B28 is 1.7-fold higher in Kd: 5.9 ± 0.4 nM for the first, 9.9 ± 1.4 nM for the second.
